# Assay results: patent US20130108641A1
# Key:
# [1] = biological target: human GITR expressed on cells (human) (UniProt Q9Y5U5); assay: FACS, Alexa488-labeled antibody on PHA-stimulated human PBMCs
# [2] = biological target: human GITR-Fc fusion protein (human) (UniProt Q9Y5U5); assay: competition ELISA, GITRL coated, GITR-Fc 0.25 µg/mL pre-incubated with antibody
# [3] = biological target: human GITR expressed on cells (human) (UniProt Q9Y5U5); assay: cell-based or functional assay
# Sequence of human GITR expressed on cells (human) (Q9Y5U5 26-241): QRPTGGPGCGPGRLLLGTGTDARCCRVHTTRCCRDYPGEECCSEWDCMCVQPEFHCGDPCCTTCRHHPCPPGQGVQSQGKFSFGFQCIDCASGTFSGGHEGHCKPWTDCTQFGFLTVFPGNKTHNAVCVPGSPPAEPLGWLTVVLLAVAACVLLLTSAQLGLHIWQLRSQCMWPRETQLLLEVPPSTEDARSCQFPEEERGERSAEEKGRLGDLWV
# Sequence of human GITR-Fc fusion protein (human) (Q9Y5U5 26-162): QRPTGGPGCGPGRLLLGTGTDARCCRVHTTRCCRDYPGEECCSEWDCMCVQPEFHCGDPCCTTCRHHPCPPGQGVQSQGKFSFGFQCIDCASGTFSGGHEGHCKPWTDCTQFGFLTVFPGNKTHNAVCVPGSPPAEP
substance,measurement,setting,value
"MAB689 (R&D Systems), commercial anti-GITR antibody",Kd,[1],1.66 nM
same,IC50,[2],13.9 nM
same,inhibition of NFkB signal transduction (luciferase reporter) at 300 ng/ml,[3],18%
